Reference: the supplement of paper PMC12636428

test system: Saccharomyces cerevisiae; experiment: transcriptional activation domain activity (GFP:mCherry ratio, weighted mean of sorted bins, harmonized to initial dataset scale) (arbitrary fluorescence ratio units); higher = stronger transcriptional activation; conditions: beta-estradiol 1 µM; induction time 4 h
Summary of the method: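 Protein tiles carrying barcodes and fused to an estradiol-inducible synthetic transcription factor were placed at the URA3 locus of yeast diploids with a GFP reporter. Following 4 hours at 30 °C in SC with 1 uM beta-estradiol, cells were sorted into 8 GFP:mCherry bins, barcodes were sequenced, and tiles with fewer than 50 reads were discarded. Activation activity is given as the read-weighted mean of bin median fluorescence, averaged across barcodes and linearly mapped to the initial dataset scale.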

Going from “ESDEEAAVEAEAPKKKGRAKKVKPESEVDHEPAFEQPKKKGRAAKAKIQPAEE” to “NDREDDGEDEEEDNGGGGRQQRRKKGSAQRAGKLKPATESDEDEDKPEEEADD”, the “transcriptional activation domain activity” value rises from 15400 to 29200.

First: SKTAGPSSNSPSQTGKDDKAAASSSTSAGGAPAATGRVIAGLAAGVAMGLAAA
Second: IPPLVLFFHFHFPSCGGCAFCRCLFLCLLLLALSLPLIPVSLIMCYPCHMYLL
The “transcriptional activation domain activity” value of the first is lower: 37700 for the first, 41100 for the second.

Going from “PFLLYTSGFLFMGATEEQMNLLTSAGVSHVSYILLLYSISFLLFLFVCMLLHL” to “VGEEGEEKESMRVRVREEMVAQATSLAFLRNVNAIGEETTSLLDTAARLVRIG”, the “transcriptional activation domain activity” value rises from 33400 to 63700.

First: FLSCMPFVFLTVVCSTLCMYFAKVFPTNNPVFLPLLLLHTFIHILSVVSFGLL
Second: WWLVKVTVSVLWVLDTFDMCLIFHILYWYLIINYGNPLSLANPIWSIILHVLV
The “transcriptional activation domain activity” value of the first is lower: 33300 for the first, 64800 for the second.

Going from “MFFLFPFLTFGYPAFNLKLCLLIQSNSYCHSFSSLSLYALLLLYLRLLLILLI” to “TADTAAASTSQPKLAQDQQQATDGENSEKRKPGRPRGSRNRKPRASVGSATKA”, the “transcriptional activation domain activity” value falls from 71100 to 37800.

Going from “KAAPAPAASGDEGGEDEDEEDGDAVARRHQSKRSRRGIVVEESDEEDEGEPAA” to “TGPTNVGLIILIIVSFFQFNFFLPVHQSFAPKLLKHHYIIYRMICSQLSYLVL”, the “transcriptional activation domain activity” value rises from 41100 to 60900.

First: LNWYFLGTFMYFLYGESIIYYFKHVLLVDRILLPLATHHRFISFMLYIIGFVF
Second: VQKNYIMQYGNSLIGHQLKTLVQVNAFHVYDLVDSMQFLLTKVISELATLLWF
The “transcriptional activation domain activity” value of the first is higher: 74300 for the first, 59200 for the second.

Compared with “SIEDMTGWKLLHGDVFRAPPNGNILAPLVGSGCQLVYMATGLLMLSCLGILNP”, “LSSSVPIEAETFSSFRPDMNMTMNMNLHNASTSSFNNEAFWKPLDSAIDHHSG” is higher in “transcriptional activation domain activity” value: 41600 for the first, 53500 for the second.

First: TFQHLSRTTYEDFVNTKQFFARVRVLRRLYSCNKQEIWQSLIFSTLACLLDRP
Second: LPTSFLEYCFRLICLWKPHLIREYFKEWFIFPNVVGWKYILQTFFNILEHVHD
The “transcriptional activation domain activity” value of the first is higher: 60900 for the first, 46600 for the second.

Compared with “SEESEGETGGKRKRKASSSSGRGEKGKKSKRGGGPEARTRKRKAAAETAETGE”, “LFGLFGPLDLWTFWTFGLFGLFGLFGLFGLFGLGLFGLLDFLDFWPWTFWPWI” is higher in “transcriptional activation domain activity” value: 23500 for the first, 57700 for the second.

First: DDDDDDVETHSIVHSDLLNDMDSASQRASHNASGFPNFLDTSCSSSFDDHFIF
Second: MPSITLTWPDRAYFYSLLVVSLLSAKLLHVFSHLTTIPIFLFLLYFPTFFFLD
The “transcriptional activation domain activity” value of the first is higher: 69100 for the first, 57300 for the second.

First: MCLSFFVFLLYIYQITFSYLLSIMSQLELCRDCFFGPLALLLVIVILSSLCMY
Second: MFRPYSKFVLPSFFDIVLIYIFQEFGREALIWCQLCLQRVLPFLGLYHMGEML
The “transcriptional activation domain activity” value of the first is higher: 69700 for the first, 38500 for the second.

Compared with “VRYKGGLVGKHFKSLAQVMPYLIYDLVPRSVLDGWVMIGRLVVLLWHTLIEDT”, “GEAQARANADAQADAGEVPEKGKKKRRHKEGGGDGEGKKKKRKEKQTEPEEGA” is lower in “transcriptional activation domain activity” value: 85100 for the first, 24700 for the second.

First: QFRYLKRLLLVHGHWSYARNGNMINNFFYKNIICIGVLWWFMIYCGWSSAYVF
Second: YFILFPFHHFLSPSLHSAPAFWCTLLLFTYVLVFFFGTLYHMVMFCFVCLFIC
The “transcriptional activation domain activity” value of the first is lower: 71200 for the first, 94500 for the second.

First: FFLLIALLPAWVVGFCIVFSIAMSCAAYDTLQVSLVATVSNDLFRNKISIWWV
Second: FPRLVGCIAASLEGLPSTRNGRTAYCVLRVVASYFLCLIRNLMFSDLPVVRCR
The “transcriptional activation domain activity” value of the first is lower: 42000 for the first, 68700 for the second.

First: NFGLMSGLYLYVCILGDSWCPSIDLIFNWMSYAYLWNVYIFLLEIIPVTLMVL
Second: LLISDSQLGSYLLIGFVLENFICLFGLLVHSYLSLTRMDLGSFFFFAQITNRM
The “transcriptional activation domain activity” value of the first is higher: 72100 for the first, 40700 for the second.

First: TRKLVFKWPYVPYLLGRYTMICCLLFVWVLLVNPIDCVHNELFIALVACMAVC
Second: MAVNDGFLFVFSCLFFLIFVTLLLTFPFLFFGSSHFHMGNPPVFPLLILISCY
The “transcriptional activation domain activity” value of the first is lower: 22500 for the first, 47200 for the second.

Compared with “SVASMNSNYLLPVNSHGYKHISNLDELDDLLSLTYSDNNLLSASNNSDFNNSN”, “EFYLQIPFRVCMGNGRRRDRVLRDMRRAKRYSDAIEAMKRIVWPIVSFRLLLP” is lower in “transcriptional activation domain activity” value: 88400 for the first, 63600 for the second.

First: LFLFLFLIFFSFLKCTFTYIFVPRFRFSLFSHSGPAVSLVYILGLLGYWGVNV
Second: IPTPFASHAFNPVDGFLQSLPYHLYAYFIPMHKYLYLSMFVFVNFWTVMIHDG
The “transcriptional activation domain activity” value of the first is lower: 55100 for the first, 58500 for the second.

Going from “AKRGRASSNASSVQGSTGAASGSSRNKRGGAAEERAGSTSADLANKTADQRKR” to “VANHQIYADWLYVWCLTYFMGMHKDVLIVLKRSLKWVPVLGWGMQIFRFIFLA”, the “transcriptional activation domain activity” value rises from 22900 to 70100.

Going from “MSGIFSLSHLLVFRFFFFSIMRFLLVFLYFLFLTITIPHSLSLSLHLFHLFVS” to “CLIVARVVTVVFPFNFCFYFFVERILISVPVVCVCEVCVLEWCVWLRFLFACA”, the “transcriptional activation domain activity” value falls from 52600 to 32000.

Compared with “LFFLSFFLGLFLFFFSLSLLLVPSSFFFLVFCLFLSFFFILSFFPRFLFFFFF”, “KVERGREVRKKAREEREKRGATGGGRGKGRGKGKGKGRDGERGKSAAEEGAGA” is lower in “transcriptional activation domain activity” value: 39700 for the first, 10800 for the second.

Compared with “HYRIRLIYFMHFVAFGFGLSSILVNLFLCRPLRKNWMTDVNGRCFNRDAFYYA”, “MCLRKVSSLFYIGILFVDLFPTTYVSWWFFFFFLCLNLFVLAMICFGVFWFLC” is lower in “transcriptional activation domain activity” value: 58600 for the first, 29300 for the second.

Compared with “MDVEAKGRADRDAKRNPTACEHCRAARTRCQPSEQPGVCKKCLALKRECISRT”, “PLLTLNGLNCFFSLIYLINLLYSLKLFLQYFFFCLPFHIFILLMHSFLYYIFY” is higher in “transcriptional activation domain activity” value: 16500 for the first, 62400 for the second.

Compared with “AKEERKAKKKAEKEKAAVAGDAMEVDDSADKKEKKEKKRKRRESEAAGAVKVE”, “MDLVILMVYLNNNNNILIIIIMISTLIIHQLVQLIYLNLWLGCILWKTVLCSG” is higher in “transcriptional activation domain activity” value: 13300 for the first, 42900 for the second.

Going from “APPPPPPPPPPPPPPPSSSSAPSPSSTSAPPPPPPPPPPPPPPPGGGGPPPPP” to “NMDQLDSVHNLNDDDLQQLLEDLGNIDHSDEKLWKEITDQAMWLGNTMDPTAA”, the “transcriptional activation domain activity” value rises from 32900 to 149000.

First: LTHLRQLLEVKRTRRSLFVFRKTLGRIIRPVITWTYIFFFTLSMWTKPIVPLI
Second: LGLDSGYLWSGILYNVSVTVSLYSLGMFWVCMSKDLQPFRPVPKFLCIKLIIF
The “transcriptional activation domain activity” value of the first is lower: 36900 for the first, 62400 for the second.

First: MLLGRHIFLYFILSFFLSFWLHTIPYLLLDFTYYHNPIISTLPTSYFFSIFLI
Second: SCCMLQVISGIAMGNSCLARMNFWPVIASNFPWLLIVIINYTMFFNWMLSYFL
The “transcriptional activation domain activity” value of the first is higher: 72200 for the first, 62400 for the second.

Compared with “CWVVWGRRWLIVLLPIICLITATVSKVLQVYLVNSNAYMLYEVFLMLYISFVL”, “EPPPPPPEPEPQPPPKAEPPPEPEPEPVPKAEAPPPPPREEPPPPKKAPPPPK” is lower in “transcriptional activation domain activity” value: 44100 for the first, 44000 for the second.

Going from “MSLLLCFRVLIFIYPLRVSFLVCSWLYILLFYMSLFHSSVICPHVKMNLFISL” to “NVSDAPRIEPLPSLNDDDIEKILQPNDIFTTDRTDASTTSSTAIEDIINPSLD”, the “transcriptional activation domain activity” value rises from 43900 to 61300.

Going from “LAHCRAVVIRRVDGTAFEPVLRQAESLAVARTWLDRLFLCAYWMLTWFLADIV” to “NEEKGGKDAASRESAVHVYGTLGSRIGRGPRSPSVLSRSFHDIHDCLACVLVV”, the “transcriptional activation domain activity” value rises from 56400 to 56900.

Going from “EEKDTKGGPATTSKAVVKGSKSAADKKKLVKGDAKGKVPENGKRDKSEEKDEK” to “SDSGSEGDSDSDRGRSRKRKKGKSTGKSKSKSKSKSRRNASGSDDESESGSGS”, the “transcriptional activation domain activity” value rises from 21800 to 35300.

First: MPPFLFSEGAFMFRICFFPLCLWWCLFLFFSFFLLLQFLSYGFAFSCGRYILF
Second: RVYKRDPMLYLSSGWQYQGHFVYVTRLDVIHLSSWLRVFCFQIQHFSSVWWVL
The “transcriptional activation domain activity” value of the first is higher: 65100 for the first, 59000 for the second.

First: PLVVTALCVAPHEFFMKNWVSCFEVGLVKLKEKPYRMIVMNGMMRLIWTYLYR
Second: SFCFILPFTALTLFIFFLSRISCWSAVWWLDDFWLLHICLDISFTFFLFYSFF
The “transcriptional activation domain activity” value of the first is lower: 52800 for the first, 62800 for the second.

Compared with “MGLWARFICFVIVCFQITFLYCLLSFSPSFLDLQKTQPLFFTFFFFLLLSLFP”, “SLHLCFSMCLTMIGYIILIKIDTLEHKAVAYFACFLLTSGAFAPSCLFHSWHN” is lower in “transcriptional activation domain activity” value: 60400 for the first, 33300 for the second.

Going from “YVLATCYPKWVYEVLMATRGRIWCVLILLAYPFFAVGVGVIVCVMGLLVAAWI” to “KLIYVRILGYLLHHMPSEAGLQQLVTEIVSFRTEEAFLKLGLLYFEHAIRLFR”, the “transcriptional activation domain activity” value rises from 35800 to 36800.

Compared with “MFWLTLLPSPCFTFFALCYKFFSFLVSIEFFKSCFLPLPTVSPNLLSSLALLL”, “KDEEEREGEKRKEGKEESDTAVVKHRRRYRSRSKDRKRDGSRERRHRERSREG” is lower in “transcriptional activation domain activity” value: 63800 for the first, 30600 for the second.

First: ADMILGFFFKNFVWTFILFWYQLFCQFNGTMVFDYSLVTLYNLVFTSLPIAFL
Second: NISTSVYVLLVCFHPLFLLLLLLLLLLLLLYRFVFAFFFISFFFFFLLLLLLL
The “transcriptional activation domain activity” value of the first is higher: 65600 for the first, 25000 for the second.

Going from “SDVEDEESSEDEAPARGKKRGRAGQAAKRRRESSLLVTVFADVLVTDVSVFVG” to “VKVVRGTGKLIFLSRCIEPWLPKNNAYLLSLPWLDWKSLVLTVLYGIKGYCFL”, the “transcriptional activation domain activity” value rises from 59400 to 62600.

First: GLLSSCVLIVLVIHHPFLLSDNRHYTFYIWRRVYMFHPIVPYALIPAYLACAW
Second: VAVTFHTEPHRLVSIIPALISIWDYILGLSPAELSSCTGIHWCIYILTIIFGF
The “transcriptional activation domain activity” value of the first is higher: 66700 for the first, 55400 for the second.

Going from “YFLAKMLLVWIVLALQTCEVSFSFVDTEHAYRGGVLRFVETLVKWAMEQNMSH” to “KGRDEEDFPLDYFPVSVEYPTEENAFDPFPPQAFTPAAPSMPISYDNVNERDS”, the “transcriptional activation domain activity” value falls from 45400 to 33400.

In the case of “MSEPPRKRAKLACVTCNARRVKCDVTERQPCSNCIAGNALCETRESKRGKHPR”, the “transcriptional activation domain activity” value was 15300.
